From the supplement of paper PMC9112550, “Optimization of the antimicrobial peptide Bac7 by deep mutational scanning” (BMC Biology, 2022) come the findings set out here.

The series concerns Escherichia coli TOP10. Nature of the series: shrunken log2 fold change of peptide-encoding DNA abundance (4.5 h post-induction vs induction); higher = less antimicrobial activity (less host growth inhibition). The settings on record: time post-induction: 4.5 h; library: site-saturation at positions 5, 18, 19, 20.
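Further: peptides expressed intracellularly from a pBAD plasmid library in pooled LB shake-flask culture, induced with 0.3% L-arabinose, DNA abundance read by NGS, three biological replicates, DESeq2 with apeglm shrinkage.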

With RRIRVRPPRLPRPRPRPCPEPRP, the “shrunken log2 fold change” value is -0.189. Then RRIRHRPPRLPRPRPRPMGDPRP, with -0.0774; and RRIRTRPPRLPRPRPRPLMEPRP, with 0.0859; and RRIRPRPPRLPRPRPRPMHKPRP, with 0.0775. As to RRIRPRPPRLPRPRPRPMPTPRP, the “shrunken log2 fold change” value was 0.22. For the sequence RRIRHRPPRLPRPRPRPHAFPRP, the “shrunken log2 fold change” value was -0.0301. In the case of RRIRLRPPRLPRPRPRPGDTPRP it was -0.238.

For the sequence RRIRSRPPRLPRPRPRPSQFPRP, the “shrunken log2 fold change” value is -0.345. Then RRIRERPPRLPRPRPRPVRCPRP, with 0.162; and RRIRNRPPRLPRPRPRPDVKPRP, with -0.412; and RRIRLRPPRLPRPRPRPEVRPRP, with -0.0732.

Take RRIRSRPPRLPRPRPRPKYGPRP: the “shrunken log2 fold change” value is -0.884. In the case of RRIRWRPPRLPRPRPRPHAKPRP it was 0.202; in that of RRIRWRPPRLPRPRPRPECYPRP, -0.0149; in that of RRIRYRPPRLPRPRPRPMCFPRP, -0.335. In the case of RRIRRRPPRLPRPRPRPNEYPRP it was -0.123; in that of RRIRLRPPRLPRPRPRPPDFPRP, -0.0501; in that of RRIRNRPPRLPRPRPRPISHPRP, -0.963. In the case of RRIRHRPPRLPRPRPRPLHVPRP, the “shrunken log2 fold change” value is 0.146. Regarding RRIRQRPPRLPRPRPRPYHNPRP, the “shrunken log2 fold change” value was -0.945. For the sequence RRIRSRPPRLPRPRPRPSDAPRP, the “shrunken log2 fold change” value was determined as 0.0409.

As for RRIRWRPPRLPRPRPRPMHEPRP, the “shrunken log2 fold change” value was -0.0461. As for RRIRQRPPRLPRPRPRPSWSPRP, the “shrunken log2 fold change” value was -0.185. RRIRYRPPRLPRPRPRPCGWPRP: the “shrunken log2 fold change” value was -0.00979. Then RRIRPRPPRLPRPRPRPGKCPRP, with -0.125; and RRIRMRPPRLPRPRPRPDWPPRP, with 0.637; and RRIRKRPPRLPRPRPRPFIMPRP, with -0.191. In the case of RRIRIRPPRLPRPRPRPTMMPRP it was -0.0891; in that of RRIRNRPPRLPRPRPRPASQPRP, 0.545. As for RRIRERPPRLPRPRPRPRATPRP, the “shrunken log2 fold change” value was found to be 0.278. For the sequence RRIRWRPPRLPRPRPRPDSMPRP, the “shrunken log2 fold change” value was -0.0126. Regarding RRIRLRPPRLPRPRPRPPYRPRP, the “shrunken log2 fold change” value is -0.0286. In the case of RRIRRRPPRLPRPRPRPMLCPRP it was 0.709; in that of RRIRDRPPRLPRPRPRPFAIPRP, -0.0496. Then RRIRMRPPRLPRPRPRPSYDPRP, with 0.26. In the case of RRIRERPPRLPRPRPRPVQHPRP it was -0.402; in that of RRIRDRPPRLPRPRPRPMEPPRP, 0.127; in that of RRIRPRPPRLPRPRPRPFQSPRP, 0.0035. RRIRPRPPRLPRPRPRPHCSPRP: the “shrunken log2 fold change” value is -0.0583. Then RRIRVRPPRLPRPRPRPHIDPRP, with -0.15.

Turning to RRIRYRPPRLPRPRPRPQPLPRP, the “shrunken log2 fold change” value was -0.00898. For RRIRTRPPRLPRPRPRPTRMPRP, the “shrunken log2 fold change” value turned out to be 0.196. Turning to RRIRFRPPRLPRPRPRPGAAPRP, the “shrunken log2 fold change” value was 0.517.

As to RRIRQRPPRLPRPRPRPEIQPRP, the “shrunken log2 fold change” value was 0.0108. Consider RRIRNRPPRLPRPRPRPKSQPRP, for which the “shrunken log2 fold change” value came to 0.0119.

Consider RRIRRRPPRLPRPRPRPVEHPRP, for which the “shrunken log2 fold change” value was 0.0989. In the case of RRIRARPPRLPRPRPRPAGQPRP it was 0.143; in that of RRIRSRPPRLPRPRPRPLITPRP, -0.012. Then RRIRHRPPRLPRPRPRPIDPPRP, with 0.0865; and RRIRARPPRLPRPRPRPDFLPRP, with 0.257; and RRIRVRPPRLPRPRPRPRKTPRP, with 0.0951. Take RRIRQRPPRLPRPRPRPDLGPRP: the “shrunken log2 fold change” value came out at 0.0039.

Take RRIRRRPPRLPRPRPRPMDKPRP: the “shrunken log2 fold change” value was -0.283. In the case of RRIRFRPPRLPRPRPRPCEMPRP it was 0.0297.

As to RRIRPRPPRLPRPRPRPYRAPRP, the “shrunken log2 fold change” value was -0.329. Then RRIRLRPPRLPRPRPRPKLTPRP, with 0.106. RRIRTRPPRLPRPRPRPTRQPRP: the “shrunken log2 fold change” value amounted to 0.112. Turning to RRIRCRPPRLPRPRPRPKEMPRP, the “shrunken log2 fold change” value was determined as 0.0303.

In the case of RRIRHRPPRLPRPRPRPSPLPRP, the “shrunken log2 fold change” value is -0.223. Then RRIRPRPPRLPRPRPRPKYYPRP, with -0.783. Then RRIRWRPPRLPRPRPRPSPMPRP, with -0.108. For RRIRDRPPRLPRPRPRPFMSPRP, the “shrunken log2 fold change” value is -0.0203. As to RRIRRRPPRLPRPRPRPECDPRP, the “shrunken log2 fold change” value was 0.889. For the sequence RRIRFRPPRLPRPRPRPHEYPRP, the “shrunken log2 fold change” value is -0.264. In the case of RRIRARPPRLPRPRPRPCRTPRP it was 0.0201. In the case of RRIRSRPPRLPRPRPRPELEPRP it was 0.54.

RRIRTRPPRLPRPRPRPAWCPRP: the “shrunken log2 fold change” value was 0.0035. Then RRIRSRPPRLPRPRPRPGVKPRP, with 0.235; and RRIRRRPPRLPRPRPRPNTAPRP, with 0.0812; and RRIRLRPPRLPRPRPRPVSHPRP, with 0.0743. Take RRIRWRPPRLPRPRPRPRSFPRP: the “shrunken log2 fold change” value was -0.00655.

Regarding RRIRSRPPRLPRPRPRPNVWPRP, the “shrunken log2 fold change” value worked out at 0.109. Then RRIRNRPPRLPRPRPRPPFHPRP, with -0.17; and RRIRQRPPRLPRPRPRPVGHPRP, with -0.0132. Then RRIRKRPPRLPRPRPRPMYIPRP, with -0.0457; and RRIRVRPPRLPRPRPRPWLNPRP, with -0.106; and RRIRQRPPRLPRPRPRPKSDPRP, with -0.2. Then RRIRKRPPRLPRPRPRPFVIPRP, with -0.363; and RRIRPRPPRLPRPRPRPFSVPRP, with -0.0603. With RRIRSRPPRLPRPRPRPLCNPRP, the “shrunken log2 fold change” value is -0.278. Then RRIRMRPPRLPRPRPRPYCWPRP, with -0.134; and RRIRCRPPRLPRPRPRPDYAPRP, with -0.278; and RRIRLRPPRLPRPRPRPMPTPRP, with 0.449. Then RRIRNRPPRLPRPRPRPTTQPRP, with -0.222; and RRIRARPPRLPRPRPRPRTCPRP, with 0.181; and RRIRGRPPRLPRPRPRPFDDPRP, with 0.0195. In the case of RRIRYRPPRLPRPRPRPTPEPRP it was 0.264; in that of RRIRWRPPRLPRPRPRPLNWPRP, 0.101. Regarding RRIRSRPPRLPRPRPRPPELPRP, the “shrunken log2 fold change” value amounted to 0.629. Then RRIRTRPPRLPRPRPRPVHQPRP, with -0.022; and RRIRARPPRLPRPRPRPSKEPRP, with 0.103.
